# Results: the supplement of paper PMC9112550, “Optimization of the antimicrobial peptide Bac7 by deep mutational scanning” (BMC Biology, 2022)
# Tested on: Escherichia coli TOP10
# Assay: shrunken log2 fold change of peptide-encoding DNA abundance (4.5 h post-induction vs induction); higher = less antimicrobial activity (less host growth inhibition)
# Conditions: time post-induction: 4.5 h; library: site-saturation at positions 5, 18, 19, 20
# 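Also: peptides expressed intracellularly from a pBAD plasmid library in pooled LB shake-flask culture, induced with 0.3% L-arabinose, DNA abundance read by NGS, three biological replicates, DESeq2 with apeglm shrinkage.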
row,Sequence,shrunken log2 fold change
1,RRIRHRPPRLPRPRPRPRQEPRP,0.0426
2,RRIRTRPPRLPRPRPRPDQTPRP,-0.0468
3,RRIRYRPPRLPRPRPRPGLNPRP,-0.489
4,RRIRDRPPRLPRPRPRPSKSPRP,-0.223
5,RRIRSRPPRLPRPRPRPCFNPRP,-0.828
6,RRIRYRPPRLPRPRPRPGYLPRP,-0.33
7,RRIRDRPPRLPRPRPRPGSVPRP,0.113
8,RRIRRRPPRLPRPRPRPEASPRP,0.75
9,RRIRIRPPRLPRPRPRPVSEPRP,-0.164
10,RRIRRRPPRLPRPRPRPPEFPRP,0.614
11,RRIRVRPPRLPRPRPRPRGFPRP,0.26
12,RRIRIRPPRLPRPRPRPNMPPRP,-0.611
13,RRIRIRPPRLPRPRPRPLMWPRP,-0.115
14,RRIRPRPPRLPRPRPRPQFHPRP,-0.3
15,RRIRYRPPRLPRPRPRPYIPPRP,-0.457
16,RRIRVRPPRLPRPRPRPVCYPRP,0.0382
17,RRIRFRPPRLPRPRPRPQFQPRP,0.0151
18,RRIRGRPPRLPRPRPRPRSMPRP,0.666
19,RRIRGRPPRLPRPRPRPCKCPRP,-0.082
20,RRIRDRPPRLPRPRPRPDHWPRP,0.0704
21,RRIRRRPPRLPRPRPRPHQDPRP,0.0414
22,RRIRHRPPRLPRPRPRPGWNPRP,0.0316
23,RRIRLRPPRLPRPRPRPVTHPRP,-0.305
24,RRIRFRPPRLPRPRPRPVPPPRP,0.46
25,RRIRHRPPRLPRPRPRPERDPRP,0.155

row,Sequence,shrunken log2 fold change
1,RRIRIRPPRLPRPRPRPMGMPRP,-0.253
2,RRIRNRPPRLPRPRPRPELWPRP,0.604
3,RRIRTRPPRLPRPRPRPTWEPRP,0.95
4,RRIRDRPPRLPRPRPRPKNLPRP,-0.0874
5,RRIRDRPPRLPRPRPRPHNFPRP,0.0112
6,RRIRARPPRLPRPRPRPCFAPRP,0.61
7,RRIRTRPPRLPRPRPRPTVMPRP,-0.152
8,RRIRVRPPRLPRPRPRPKDRPRP,-0.0469
9,RRIRSRPPRLPRPRPRPAFRPRP,0.452
10,RRIRRRPPRLPRPRPRPNFFPRP,0.184
11,RRIRPRPPRLPRPRPRPNWKPRP,-0.101
12,RRIRMRPPRLPRPRPRPMNMPRP,-0.344
13,RRIRVRPPRLPRPRPRPWYNPRP,-0.153
14,RRIRMRPPRLPRPRPRPQMLPRP,0.186
15,RRIRIRPPRLPRPRPRPTIVPRP,0.119
16,RRIRGRPPRLPRPRPRPDMAPRP,0.882
17,RRIRCRPPRLPRPRPRPNKPPRP,0.0511
18,RRIRNRPPRLPRPRPRPFPDPRP,-0.00602
19,RRIRTRPPRLPRPRPRPVCAPRP,0.266
20,RRIRFRPPRLPRPRPRPVPMPRP,0.108
21,RRIRGRPPRLPRPRPRPMYPPRP,0.244
22,RRIRPRPPRLPRPRPRPYNYPRP,-0.446
23,RRIRIRPPRLPRPRPRPWNVPRP,-0.00149
24,RRIRYRPPRLPRPRPRPAKNPRP,-0.508
25,RRIRNRPPRLPRPRPRPKQAPRP,-0.00865

row,Sequence,shrunken log2 fold change
1,RRIRSRPPRLPRPRPRPDPNPRP,-0.000549
2,RRIRKRPPRLPRPRPRPRLNPRP,0.489
3,RRIRDRPPRLPRPRPRPCRLPRP,0.00469
4,RRIRPRPPRLPRPRPRPMRQPRP,0.398
5,RRIRCRPPRLPRPRPRPHDRPRP,-0.0905
6,RRIRPRPPRLPRPRPRPINVPRP,-0.366
7,RRIRGRPPRLPRPRPRPWKTPRP,-0.0497
8,RRIRGRPPRLPRPRPRPAIRPRP,0.768
9,RRIRHRPPRLPRPRPRPSEHPRP,0.00525
10,RRIRIRPPRLPRPRPRPNFKPRP,-0.144
11,RRIRCRPPRLPRPRPRPHPRPRP,0.444
12,RRIRSRPPRLPRPRPRPYCNPRP,-0.709
13,RRIRGRPPRLPRPRPRPPRVPRP,1.15
14,RRIRCRPPRLPRPRPRPPSMPRP,0.0264
15,RRIRLRPPRLPRPRPRPHRVPRP,0.0399
16,RRIRDRPPRLPRPRPRPWFRPRP,-0.44
17,RRIRPRPPRLPRPRPRPRGPPRP,0.545
18,RRIRWRPPRLPRPRPRPSKGPRP,0.0944
19,RRIRLRPPRLPRPRPRPFDEPRP,0.0466
20,RRIRLRPPRLPRPRPRPWTIPRP,-0.0385
21,RRIRERPPRLPRPRPRPESGPRP,-0.0112
22,RRIRTRPPRLPRPRPRPYDYPRP,-0.00193
23,RRIRVRPPRLPRPRPRPDGDPRP,-0.339
24,RRIRTRPPRLPRPRPRPFNDPRP,-0.136
25,RRIRTRPPRLPRPRPRPSKKPRP,-0.174

row,Sequence,shrunken log2 fold change
1,RRIRNRPPRLPRPRPRPMPSPRP,0.0832
2,RRIRPRPPRLPRPRPRPKHCPRP,-0.0919
3,RRIRDRPPRLPRPRPRPYFGPRP,-0.551
4,RRIRKRPPRLPRPRPRPMCWPRP,0.0564
5,RRIRMRPPRLPRPRPRPKAKPRP,0.0227
6,RRIRIRPPRLPRPRPRPQVEPRP,-0.127
7,RRIRPRPPRLPRPRPRPNQAPRP,-0.0302
8,RRIRGRPPRLPRPRPRPVTAPRP,0.74
9,RRIRKRPPRLPRPRPRPFINPRP,-0.148
10,RRIRWRPPRLPRPRPRPFGIPRP,-0.115
11,RRIRTRPPRLPRPRPRPAMYPRP,-0.106
12,RRIRFRPPRLPRPRPRPMAKPRP,-0.0311
13,RRIRMRPPRLPRPRPRPSVGPRP,0.357
14,RRIRFRPPRLPRPRPRPYNPPRP,-0.237
15,RRIRCRPPRLPRPRPRPWHAPRP,-0.271
16,RRIRIRPPRLPRPRPRPTKTPRP,0.12
17,RRIRIRPPRLPRPRPRPPHSPRP,-0.164
18,RRIRRRPPRLPRPRPRPGDKPRP,-0.292
19,RRIRGRPPRLPRPRPRPGFCPRP,0.925
20,RRIRQRPPRLPRPRPRPAGYPRP,-0.101
21,RRIRPRPPRLPRPRPRPYWLPRP,-0.377
22,RRIRDRPPRLPRPRPRPHWYPRP,-0.212
23,RRIRVRPPRLPRPRPRPGFKPRP,-0.0945
24,RRIRLRPPRLPRPRPRPVNTPRP,-0.186
25,RRIRYRPPRLPRPRPRPDVWPRP,-0.194

row,Sequence,shrunken log2 fold change
1,RRIRDRPPRLPRPRPRPSLQPRP,0.073
2,RRIRCRPPRLPRPRPRPWTSPRP,-0.419
3,RRIRSRPPRLPRPRPRPWIRPRP,-0.207
4,RRIRTRPPRLPRPRPRPPNCPRP,0.0905
5,RRIRRRPPRLPRPRPRPYRKPRP,0.0779
6,RRIRIRPPRLPRPRPRPPMYPRP,-0.849
7,RRIRHRPPRLPRPRPRPQPKPRP,0.24
8,RRIRTRPPRLPRPRPRPEIWPRP,0.264
9,RRIRHRPPRLPRPRPRPPQLPRP,-0.215
10,RRIRPRPPRLPRPRPRPGWCPRP,0.072
11,RRIRQRPPRLPRPRPRPNVNPRP,-0.543
12,RRIRIRPPRLPRPRPRPRPFPRP,-0.253
13,RRIRERPPRLPRPRPRPTTGPRP,-0.0235
14,RRIRWRPPRLPRPRPRPFMYPRP,-0.0072
15,RRIRVRPPRLPRPRPRPCKTPRP,-0.00208
16,RRIRMRPPRLPRPRPRPPDYPRP,0.345
17,RRIRMRPPRLPRPRPRPMWAPRP,0.392
18,RRIRTRPPRLPRPRPRPRFWPRP,0.0622
19,RRIRLRPPRLPRPRPRPYHFPRP,-0.26
20,RRIRCRPPRLPRPRPRPVFDPRP,-0.198
21,RRIRSRPPRLPRPRPRPEATPRP,0.72
22,RRIRARPPRLPRPRPRPPMSPRP,0.414
23,RRIRKRPPRLPRPRPRPKAAPRP,0.142
24,RRIRVRPPRLPRPRPRPWMEPRP,-0.124
25,RRIRVRPPRLPRPRPRPHVFPRP,-0.0624

row,Sequence,shrunken log2 fold change
1,RRIRRRPPRLPRPRPRPFIDPRP,-0.162
2,RRIRSRPPRLPRPRPRPCTDPRP,-0.11
3,RRIRNRPPRLPRPRPRPRMPPRP,-0.0444
4,RRIRNRPPRLPRPRPRPETQPRP,0.162
5,RRIRRRPPRLPRPRPRPMWHPRP,-0.03
6,RRIRVRPPRLPRPRPRPGAPPRP,0.603
7,RRIRTRPPRLPRPRPRPGMPPRP,-0.0497
8,RRIRIRPPRLPRPRPRPIRSPRP,-0.273
9,RRIRARPPRLPRPRPRPKMDPRP,0.384
10,RRIRTRPPRLPRPRPRPASRPRP,0.279
11,RRIRFRPPRLPRPRPRPVTEPRP,-0.0132
12,RRIRTRPPRLPRPRPRPHYFPRP,-0.914
13,RRIRARPPRLPRPRPRPLCYPRP,-0.0201
14,RRIRVRPPRLPRPRPRPAYTPRP,-0.286
15,RRIRYRPPRLPRPRPRPESFPRP,-0.0275
16,RRIRKRPPRLPRPRPRPMIKPRP,-0.0199
17,RRIRERPPRLPRPRPRPVIKPRP,-0.201
18,RRIRKRPPRLPRPRPRPPEIPRP,0.131
19,RRIRCRPPRLPRPRPRPFKAPRP,-0.713
20,RRIRSRPPRLPRPRPRPTLGPRP,0.378
21,RRIRKRPPRLPRPRPRPGASPRP,0.787
22,RRIRFRPPRLPRPRPRPTQEPRP,0.321
23,RRIRDRPPRLPRPRPRPNRQPRP,-0.0252
24,RRIRLRPPRLPRPRPRPHTKPRP,-0.422
25,RRIRKRPPRLPRPRPRPNPVPRP,0.0163
